Results: article PMC2164959

Target: AU1-tagged codon-optimised HPV16 E5 mutant M1 (human papillomavirus type 16) (UniProt P06927)
Assay: co-IP; HEK-293T transfected, lysed 20-24 h after transfection in CHAPS buffer (0.2 M NaCl, 50 mM HEPES pH 7.5, 2% CHAPS); immunoprecipitation by the tag of E5 (anti-AU1, anti-HA or anti-GFP), protein G-sepharose, blot with anti-calnexin

B1: calnexin (natural protein)
chain: HDGHDDDVIDIEDDLDDVIEEVEDSKPDTTAPPSSPKVTYKAPVPTGEVYFADSFDRGTLSGWILSKAKKDDTDDEIAKYDGKWEVEEMKESKLPGDKGLVLMSRAKHHAISAKLNKPFLFDTKPLIVQYEVNFQNGIECGGAYVKLLSKTPELNLDQFHDKTPYTIMFGPDKCGEDYKLHFIFRHKNPKTGIYEEKHAKRPDADLKTYFTDKKTHLYTLILNPDNSFEILVDQSVVNSGNLLNDMTPPVNPSREIEDPEDRKPEDWDERPKIPDPEAVKPDDWDEDAPAKIPDEEATKPEGWLDDEPEYVPDPDAEKPEDWDEDMDGEWEAPQIANPRCESAPGCGVWQRPVIDNPNYKGKWKPPMIDNPSYQGIWKPRKIPNPDFFEDLEPFRMTPFSAIGLELWSMTSDIFFDNFIICADRRIVDDWANDGWGLKKAADGAAEPGVVGQMIEAAEERPWLWVVYILTVALPVFLVILFCCSGKKQTSGMEYKKTDAPQPDVKEEEEEKEEEKDKGDEEEEGEEKLEEKQKSDAEEDGGTVSQEEEDRKPKAEEDEILNRSPRNRKPRRE
- percent of calnexin co-precipitated, relative to wild type: 50%
